Measurements from US20200383917A1 (NORTHWESTERN UNIVERSITY, published 2020).
Ends that are not written are not given here.

Target: T1, CD11c on the surface of mouse bone marrow-derived dendritic cells (BMDCs) (mouse, UniProt Q9QXH4 20-1169)
T1 sequence (looked up): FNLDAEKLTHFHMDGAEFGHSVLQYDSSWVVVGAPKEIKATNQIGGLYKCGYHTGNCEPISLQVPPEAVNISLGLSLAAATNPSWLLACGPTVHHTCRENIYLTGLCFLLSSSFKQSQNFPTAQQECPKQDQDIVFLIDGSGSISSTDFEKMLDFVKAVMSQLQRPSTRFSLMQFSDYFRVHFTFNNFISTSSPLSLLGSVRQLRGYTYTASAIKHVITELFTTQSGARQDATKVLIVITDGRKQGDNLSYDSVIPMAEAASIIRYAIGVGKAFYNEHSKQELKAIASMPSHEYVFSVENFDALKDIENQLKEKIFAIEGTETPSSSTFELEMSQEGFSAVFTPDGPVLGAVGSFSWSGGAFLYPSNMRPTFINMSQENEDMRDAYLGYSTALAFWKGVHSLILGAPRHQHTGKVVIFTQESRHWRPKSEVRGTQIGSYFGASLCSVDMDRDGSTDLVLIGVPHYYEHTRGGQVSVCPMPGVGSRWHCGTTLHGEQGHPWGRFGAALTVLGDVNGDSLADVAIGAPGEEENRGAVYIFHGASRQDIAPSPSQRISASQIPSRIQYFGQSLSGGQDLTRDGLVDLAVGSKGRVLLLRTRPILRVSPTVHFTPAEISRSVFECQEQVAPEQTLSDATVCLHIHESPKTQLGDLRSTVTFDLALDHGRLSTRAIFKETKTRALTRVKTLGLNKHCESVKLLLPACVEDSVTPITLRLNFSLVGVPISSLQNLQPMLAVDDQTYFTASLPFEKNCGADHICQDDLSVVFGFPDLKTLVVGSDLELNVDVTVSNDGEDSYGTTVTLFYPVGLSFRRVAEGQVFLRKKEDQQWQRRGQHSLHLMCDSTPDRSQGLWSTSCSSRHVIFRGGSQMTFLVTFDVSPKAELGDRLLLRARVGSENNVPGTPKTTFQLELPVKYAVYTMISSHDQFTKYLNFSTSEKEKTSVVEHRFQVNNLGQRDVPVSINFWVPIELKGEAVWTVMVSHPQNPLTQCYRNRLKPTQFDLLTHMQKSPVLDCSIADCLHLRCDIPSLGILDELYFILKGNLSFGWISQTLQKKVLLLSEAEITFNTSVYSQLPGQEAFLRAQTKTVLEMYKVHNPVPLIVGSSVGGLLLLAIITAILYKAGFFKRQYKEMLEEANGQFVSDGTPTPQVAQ
Experiment: cell-based or functional assay

- cellular uptake by BMDCs (flow cytometry, nile red-loaded PS, 1 h incubation): > 3 fold
Binder: GGVTLTYQFAAGPRDK (not fully specified (N-terminus); also: displayed on PEG-bl-PPS polymersome) [P-D2-PEG5-PS (PEG-bl-PPS polymersome displaying the P-D2-PEG5-Lys-PA targeting peptide construct)]
